How the values were obtained:
SARS-CoV-2 S protein S1 = SARS-CoV-2 S protein S1 (SARS-CoV-2, ancestral (WT), UniProt P0DTC2); assay: ELISA; conditions: both partners purified
[1] = target: SARS-CoV-2 S protein receptor binding domain (RBD) (SARS-CoV-2, ancestral (WT), UniProt P0DTC2); assay: crystal structure; conditions: both partners purified

B1: monoclonal antibody m31A7 (IgG) (antibody, V domains shown)
VH: EVQLQQSGPEMVKPGASVKISCKTSGYTFTEYTIYWVKQSHGKSLEWLGGINPNIGDTTYNQKFKGKATLTVDTSSSTAYMELRSLTSEDSAVYYCAREVYNYSFAYWGQGTLVTVSA
VL: DIVMSQSPSSLAVSVGEKVTMSCKSSQSLLYSSNQKNYLAWYQQKLGQTPKLLIYWASSRESGVPDRFTGSGSGTDFTLTISSVRAEDLAVYYCQQYYRYPLTFGVGTKLELK
SARS-CoV-2 S protein S1
  binding result: binds

B2: m31A7 Fab (Fab, V domains shown)
VH: B1 VH
VL: B1 VL
[1]
  binding result: binds
